The text below walks through data of PMC7826288, “Dynamics of TRF1 organizing a single human telomere” (Nucleic Acids Research, 2020).

This data set deals with the molecule itself. The data set is described as follows: SEC; Superdex 200 Increase 10/300 GL, 20 mM Tris-HCl (pH 8.0), 200 mM NaCl; molecular weight assessed against standard molecular markers. A general note: Size exclusion chromatography separates by hydrodynamic size, large species first.

B1: human TRF1(3-439) (natural protein, UniProt P54274 3-439, looked up)
chain: EDVSSAAPSPRGCADGRDADPTEEQMAETERNDEEQFECQELLECQVQVGAPEEEEEEEEDAGLVAEAEAVAAGWMLDFLCLSLCRAFRDGRSEDFRRTRNSAEAIIHGLSSLTACQLRTIYICQFLTRIAAGKTLDAQFENDERITPLESALMIWGSIEKEHDKLHEEIQNLIKIQAIAVCMENGNFKEAEEVFERIFGDPNSHMPFKSKLLMIISQKDTFHSFFQHFSYNHMMEKIKSYVNYVLSEKSSTFLMKAAAKVVESKRTRTITSQDKPSGNDVEMETEANLDTRKSVSDKQSAVTESSEGTVSLLRSHKNLFLSKLQHGTQQQDLNKKERRVGTPQSTKKKKESRRATESRIPVSKSQPVTPEKHRARKRQAWLWEEDKNLRSGVRKYGEGNWSKILLHYKFNNRTSVMLKDRWRTMKKLKLISSDSED
notes: also called TRF1 dimer; source: E. coli BL21(DE3), purified (Ni-NTA, 3C protease, HiTrap Heparin, Superdex 200)
Regarding B1, the “stoichiometry N” value worked out at 2.

What is called stoichiometry N is a count of units in the complex or per binding partner.
